Data as given in paper PMC7781312 (bioRxiv, 2021).
Non-standard residues stand in square brackets, D forms with d. Primed or numbered codes have the meaning given here. No end group written: not given here. PEG6′ = PEG spacer between stem peptide and Lys-biotin; Biotin′ = not defined here

How the values were obtained:
[1] = molecular target: T1, biotinylated HKU4 S stem helix peptide (Bat coronavirus HKU4 (A3EX94), UniProt A3EX94); test: BLI
T1 chain: DFKDELEEFFKNVTS[PEG6′]K-{Biotin′}

[2] = molecular target: T2, biotinylated MERS-CoV S stem helix peptide (MERS-CoV EMC/2012 (AFS88936), UniProt K0BRG7); test: BLI
T2 chain: DFQDELDEFFKNVST[PEG6′]K-{Biotin′}

[3] = molecular target: T3, biotinylated HKU5 S stem helix peptide (Bat coronavirus HKU5 (A3EXD0), UniProt A3EXD0); test: BLI
T3 chain: DFKEELEEFFKNVSS[PEG6′]K-{Biotin′}

[4] = molecular target: T4, biotinylated SARS-CoV/SARS-CoV-2 S stem helix peptide (SARS-CoV-2 / SARS-CoV, identical …, UniProt P0DTC2); test: BLI
T4 chain: SFKEELDKYFKNHTS[PEG6′]K-{Biotin′}

[5] = molecular target: T5, biotinylated OC43 S stem helix peptide (HCoV-OC43 (Q696P8), UniProt Q696P8); test: BLI
T5 chain: DFKEELDQWFKNQTS[PEG6′]K-{Biotin′}

[6] = molecular target: T6, biotinylated mouse hepatitis virus S stem helix peptide (Murine hepatitis virus A59 (P11224), UniProt P11224); test: BLI
T6 chain: DFKEELDKWFKNQTS[PEG6′]K-{Biotin′}

[7] = molecular target: T7, HKU4 S stem helix peptide, residues 1231-1245 (crystallised) (bat coronavirus HKU4, UniProt A3EX94); test: crystal structure
T7 chain: DFKDELEEFFKNVTS

[8] = molecular target: T8, MERS-CoV S stem helix peptide, residues 1230-1240 (crystallised) (MERS-CoV (EMC/2012 numbering), UniProt K9N5Q8); test: crystal structure
T8 chain: DFQDELDEFFK

[9] = molecular target: T9, SARS-CoV/SARS-CoV-2 S stem helix peptide (crystallised) (SARS-CoV-2 / SARS-CoV, identical …, UniProt P0DTC2); test: crystal structure
T9 chain: SFKEELDKYFKNHTS

[10] = molecular target: T10, MERS-CoV S stem helix peptide, residues 1230-1244 (crystallised) (MERS-CoV, UniProt K9N5Q8); test: crystal structure
T10 chain: DFQDELDEFFKNVST

Measured: binding result

B1: B6 monoclonal antibody (recombinant IgG with human constant regions) (antibody, V domains shown)
VH: EVQLQQSGPVLVKPGASVRMSCKASGYTITDYYLNWVKQSHGKSLEWLGVLNPYSGGSLYSQTFKGKATLTVDRSSSTAYLELNSLTSEDSAVYYCARQLGRGNGLDYWGQGTSVTVSS
VL: NIMMTQSPSSLAVSAGEKVTMSCKSSQSVLHSSDQKNYLAWYQQKPGQSPKLLIYWASTRESGVPDRFTGSGSGTDFTLTISSVQAEDLAVYFCHQYLSSYTFGGGTKLEIK
binds: [1] | [2] | [3] | [4] | [5] | [6]

B2: B6 Fab fragment (Fab, V domains shown)
VH: B1 VH
VL: B1 VL
binds: all assays above
